For the assay, the target named is T1, recombinant CC-CKR1 receptor (UniProt P32246 1-355, limits assumed).
T1 construct: whole, on cells; The assay used either THP-1 cells or COS cells expressing recombinant CC-CKR1; also called CCKR1 receptors
T1 sequence (looked up): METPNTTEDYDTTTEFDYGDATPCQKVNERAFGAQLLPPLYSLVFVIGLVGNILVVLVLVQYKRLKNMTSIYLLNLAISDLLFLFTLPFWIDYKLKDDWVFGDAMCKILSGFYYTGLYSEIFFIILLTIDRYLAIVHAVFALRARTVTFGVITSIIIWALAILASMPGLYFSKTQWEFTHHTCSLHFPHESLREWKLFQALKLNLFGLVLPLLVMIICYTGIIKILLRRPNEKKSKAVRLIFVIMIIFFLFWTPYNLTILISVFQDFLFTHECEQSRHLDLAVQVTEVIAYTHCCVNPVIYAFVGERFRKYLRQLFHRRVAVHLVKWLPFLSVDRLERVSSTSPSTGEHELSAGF
The experiment in a line: radioligand competition on cells (THP-1 or COS expressing CC-CKR1), [125I]RANTES tracer, competitor Met-RANTES. The protocol: The competition assay was carried out in 96 well multi-screen filter-phase (Millipore, MADV N6500) which had been pretreated for 2 h with 50 mM HEPES buffer, pH 7.2 containing 1 mM CaCl_2, 5 mM MgCl_2, and 0.5% BSA, (binding buffer). The assay was performed using either THP-1 cells or COS cells expressing the recombinant CC-CKR1 receptor (Neote, K., DiGregorio, Mak, J. Y., Horuk, R., and Schall, T. J., (1993) Molecular cloning, functional expression, and signalling characteristics of a C—C chemokine receptor, *Cell* 72 415–425; Gao, J. L., et al, *J. Exp. Med.* 177 1421–7 (1993)). Each well contained 10^5 cells in a volume of 150 μl of binding buffer containing 0.4 nM [I^125]Mip-1a or 0.4 nM [I^125]RANTES (new England Nuclear, Nex 277) and varying concentrations of competing Met-RANTES. Assays were performed in triplicate. After 90 min incubation at 4° C., the cells were washed 4 times with 200 μl ice cold binding buffer containing 0.5 M NaCl which was removed by aspiration. The filters were dried, 3.5 ml Ultima Gold Scintillation fluid added (Packard) and counted on a Beckman LS5000 counter.

B1: methionylated RANTES (ligand)
chain: MSPYSSDTTPCCFAYIARPLPRAHIKEYFYTSGKCSNPAVVFVTRKNRQVCANPEKKWVREYINSLEMS
notes: also called Met-RANTES
As to B1, the binding result was “binds”.

(Values after patent publication US6555105 (GlaxoSmithKline, dated 2003).)
